Patent US20240218079A1, “PLASMA KALLIKREIN ANTIBODIES AND USES THEREOF” (Astria Therapeutics, Inc., priority 2021, published 2024)

Tests used:
[1] = molecular target: human plasma kallikrein (human) (UniProt P03952)
[2] = molecular target: human plasma kallikrein (human) (UniProt P03952); remark: listed apart in the source

human plasma kallikrein (human), sequence (P03952 20-390 S143N limits assumed, chain 1 of 2): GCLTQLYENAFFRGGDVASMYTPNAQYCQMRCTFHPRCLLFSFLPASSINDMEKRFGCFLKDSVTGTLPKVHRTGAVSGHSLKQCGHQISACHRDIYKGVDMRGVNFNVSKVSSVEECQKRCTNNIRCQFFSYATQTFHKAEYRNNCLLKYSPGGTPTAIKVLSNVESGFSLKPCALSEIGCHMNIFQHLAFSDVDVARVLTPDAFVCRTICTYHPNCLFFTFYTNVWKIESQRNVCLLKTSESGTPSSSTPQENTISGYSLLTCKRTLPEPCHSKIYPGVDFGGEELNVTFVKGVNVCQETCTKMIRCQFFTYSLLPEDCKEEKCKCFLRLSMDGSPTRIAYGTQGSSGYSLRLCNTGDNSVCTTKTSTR
human plasma kallikrein (human), sequence (P03952 391-638 limits assumed, chain 2 of 2): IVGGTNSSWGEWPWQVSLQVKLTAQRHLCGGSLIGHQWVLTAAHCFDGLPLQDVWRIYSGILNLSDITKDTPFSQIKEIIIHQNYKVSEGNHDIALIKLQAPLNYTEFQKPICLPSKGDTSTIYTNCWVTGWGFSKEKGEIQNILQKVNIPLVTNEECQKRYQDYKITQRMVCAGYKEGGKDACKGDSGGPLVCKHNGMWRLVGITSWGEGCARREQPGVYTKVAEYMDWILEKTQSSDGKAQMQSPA

B1: C1inh (protein, UniProt P05155 23-500, looked up, species assumed)
Plasma protease C1 inhibitor: NPNATSSSSQDPESLQDRGEGKVATTVISKMLFVEPILEVSSLPTTNSTTNSATKITANTTDEPTTQPTTEPTTQPTIQPTQPTTQLPTDSPTQPTTGSFCPGPVTLCSDLESHSTEAVLGDALVDFSLKLYHAFSAMKKVETNMAFSPFSIASLLTQVLLGAGENTKTNLESILSYPKDFTCVHQALKGFTTKGVTSVSQIFHSPDLAIRDTFVNASRTLYSSSPRVLSNNSDANLELINTWVAKNTNNKISRLLDSLPSDTRLVLLNAIYLSAKWKTTFDPKKTRMEPFHFKNSVIKVPMMNSKKYPVAHFIDQTLKAKVGQLQLSHNLSLVILVPQNLKHRLEDMEQALSPSVFKAIMEKLEMSKFQPTLLTLPRIKVTTSQDMLSIMEKLEFFDFSYDLNLCGLTEDPDLQVSAMQHQTVLELTETGVEAAAASAISVARTLLVFEVQQPFLFVLWDQQHKFPVFMGRVYDPRA
B1 gave an IC50 (read off the curve) [1] of 3 nM, an IC50 (read off the curve), lower panel, 10 nM pKal [2] of 1e-08 M and an IC50 (read off the curve), upper panel, 1 nM pKal [2] of 4e-09 M.
